Molecular target: FASN of the SPR analysis (UniProt P49327 1-2511)
Assay: SPR

B1: TRIM56 of the SPR analysis (enzyme)
chain: MVSHGSSPSLLEALSSDFLACKICLEQLRAPKTLPCLHTYCQDCLAQLADGGRVRCPECRETVPVPPEGVASFKTNFFVNGLLDLVKARACGDLRAGKPACALCPLVGGTSTGGPATARCLDCADDLCQACADGHRCTRQTHTHRVVDLVGYRAGWYDEEARERQAAQCPQHPGEALRFLCQPCSQLLCRECRLDPHLDHPCLPLAEAVRARRPGLEGLLAGVDNNLVELEAARRVEKEALARLREQAARVGTQVEEAAEGVLRALLAQKQEVLGQLRAHVEAAEEAARERLAELEGREQVARAAAAFARRVLSLGREAEILSLEGAIAQRLRQLQGCPWAPGPAPCLLPQLELHPGLLDKNCHLLRLSFEEQQPQKDGGKDGAGTQGGEESQSRREDEPKTERQGGVQPQAGDGAQTPKEEKAQTTREEGAQTLEEDRAQTPHEDGGPQPHRGGRPNKKKKFKGRLKSISREPSPALGPNLDGSGLLPRPIFYCSFPTRMPGDKRSPRITGLCPFGPREILVADEQNRALKRFSLNGDYKGTVPVPEGCSPCSVAALQSAVAFSASARLYLINPNGEVQWRRALSLSQASHAVAALPSGDRVAVSVAGHVEVYNMEGSLATRFIPGGKASRGLRALVFLTTSPQGHFVGSDWQQNSVVICDGLGQVVGEYKGPGLHGCQPGSVSVDKKGYIFLTLREVNKVVILDPKGSLLGDFLTAYHGLEKPRVTTMVDGRYLVVSLSNGTIHIFRVRSPDS
A Kd of 17 nM was found for B1 in this work.
